What all share (assay): ELISA: antibody captured on anti-mouse IgG-Fc plate, C2-tagged EL heparin extract added, anti-C2-tag detection, A450 (Example 8)
Assay [1] concerns the target T1, human [1-305]-mouse chimeric EL with C2 tag (human; mouse) (UniProt Q9WVG5).
T1 sequence: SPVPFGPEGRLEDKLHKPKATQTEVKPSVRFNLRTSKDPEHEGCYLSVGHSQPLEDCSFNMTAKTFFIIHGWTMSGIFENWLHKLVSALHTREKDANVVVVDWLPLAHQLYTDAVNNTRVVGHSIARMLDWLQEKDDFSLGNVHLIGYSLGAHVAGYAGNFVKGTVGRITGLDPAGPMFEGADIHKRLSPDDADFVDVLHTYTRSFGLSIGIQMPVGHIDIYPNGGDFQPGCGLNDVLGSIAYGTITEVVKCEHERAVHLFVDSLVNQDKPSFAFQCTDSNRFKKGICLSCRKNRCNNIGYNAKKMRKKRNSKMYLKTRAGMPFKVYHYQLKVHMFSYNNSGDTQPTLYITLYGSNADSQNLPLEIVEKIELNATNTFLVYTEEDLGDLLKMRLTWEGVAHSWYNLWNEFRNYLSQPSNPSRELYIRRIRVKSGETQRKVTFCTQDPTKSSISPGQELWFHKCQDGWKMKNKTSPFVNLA

The target in assay [2] is T2, human [1-157]-mouse chimeric EL with C2 tag (human; mouse) (UniProt Q9WVG5).
T2 sequence: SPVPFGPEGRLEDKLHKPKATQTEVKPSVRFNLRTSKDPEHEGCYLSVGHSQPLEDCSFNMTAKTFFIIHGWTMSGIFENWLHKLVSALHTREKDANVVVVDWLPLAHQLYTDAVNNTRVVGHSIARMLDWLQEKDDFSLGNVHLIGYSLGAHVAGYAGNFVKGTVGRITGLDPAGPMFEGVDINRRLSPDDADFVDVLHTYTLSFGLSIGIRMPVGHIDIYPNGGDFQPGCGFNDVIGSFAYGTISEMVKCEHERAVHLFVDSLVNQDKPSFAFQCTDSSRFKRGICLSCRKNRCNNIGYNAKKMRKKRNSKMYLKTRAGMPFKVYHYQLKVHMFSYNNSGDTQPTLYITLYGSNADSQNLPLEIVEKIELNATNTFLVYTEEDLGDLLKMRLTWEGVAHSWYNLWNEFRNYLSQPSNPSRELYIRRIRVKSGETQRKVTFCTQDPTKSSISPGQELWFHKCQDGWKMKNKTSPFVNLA

For assay [3], the target named is T3, human [202-500]-mouse chimeric EL with C2 tag (mouse; human) (UniProt Q9WVG5).
T3 sequence: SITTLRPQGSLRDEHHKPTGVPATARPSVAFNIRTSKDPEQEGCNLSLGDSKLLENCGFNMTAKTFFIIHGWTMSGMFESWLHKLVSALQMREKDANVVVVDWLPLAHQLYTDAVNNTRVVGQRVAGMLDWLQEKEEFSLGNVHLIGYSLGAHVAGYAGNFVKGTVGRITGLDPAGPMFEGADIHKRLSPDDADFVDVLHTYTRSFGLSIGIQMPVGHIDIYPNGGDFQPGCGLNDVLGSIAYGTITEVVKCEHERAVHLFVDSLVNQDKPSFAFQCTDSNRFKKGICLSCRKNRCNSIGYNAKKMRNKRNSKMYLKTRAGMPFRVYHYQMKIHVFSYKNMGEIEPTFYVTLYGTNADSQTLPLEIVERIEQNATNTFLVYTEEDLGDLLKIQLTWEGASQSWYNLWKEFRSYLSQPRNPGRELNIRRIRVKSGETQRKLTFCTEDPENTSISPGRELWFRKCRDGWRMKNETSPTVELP

Where a chain is given by its changes, count along the chain named.

A word on the EC50 (read off the curve): it is the concentration at which the effect is half-maximal.

B1: 19E7 antibody (antibody, V domains shown)
VH: QVQLQQPGSVLVRPGASVKLSCKASGYTFTTYWMHWVKQRPGQGLEWIGEIHPYSGNNNNNEKFKGKATLTVDTSSSTAYVDLSRLTSEDSAVYYCARYDSNYVFAYWGQGTLVTVSA
VL: QIVLTQSPAIMSASPGEGVTITCSASSSVSYMHWFQQKPGTSPKLWIYSTSNLASGVPARFSGSGSGTSYSLTISRMEAEDAATYYCQQRDSYLTFGSGTKLEVK
For the molecule B1, the concentration for a half-maximal effect (EC50 (read off the curve)) in assay [1] came to 6 ng/mL.

B2: 7D4 antibody (antibody, V domains shown)
VH: QIQLVQSGPELKKPGETVKISCKASGYTFTNYGMNWVKQAPGKDLKWMGWINTYSGVPTYADDFKGRFAFSLETSASTAYLQINNLKNEDTATYFCARFSYYGRHYFDYWGQGTTLTVSS
VL: DIVLTQSPASLAVSLGQRATISCKASQSVDYDGDSYMNWYQQKPGQPPQLLIYAASNLGSGIPARFSGSGSGTDFTLNIHPVEEEDAATYYCHQSTDDPPWTFGGGTKLEIK
In assay [2], B2 registered a concentration giving a half-maximal response (EC50 (read off the curve)) of 6 ng/mL.

B3: 14A1 antibody (antibody, V domains shown)
VH: B2 VH with D44G, L86F, T115A, V118A
VL: B2 VL with Q49K, G59K, H93Q, S95T
In assay [2], B3 came in with a concentration giving a half-maximal response (EC50 (read off the curve)) of 7 ng/mL.

B4: 55A1 antibody (antibody, V domains shown)
VH: B2 VH with Q3H, D44G, D62G, F99R, S100G, H105R, Y109V, Q112T, L116V
VL: DIVLTQSPASLAVSLGQRATISCKASQSVDYDVDSYMHWYQQKPGQPPKLLIYAASNLASGIPARFSGGGSGTDFTLNIHPVEEEDVATYYCQQTIEDPPTFGGGTKLEIK
For B4, the half-maximal effective concentration (EC50 (read off the curve)) in assay [2] was 4 ng/mL.

B5: 16B3 antibody (antibody, V domains shown)
VH: DVKLVESGGGLVQPGGSLKLSCTASGFTFSGYTMSWVRQTPEKRLELVAEISFARDRAFYPDTVKGRFTISRDNAKNTLYLQMSSLKSEDTAMYYCTRLGGRNHDYWYFDVWGTGTTVTVSS
VL: DIVLTQSPTSLAVSPGQRATISCRASESVEYYGTSLMQWYQQKPGQRPQLLIYAASNVESGVPARFSGSGSGTDFSLNIHPVEEDDIAVYFCQQSWKVPFTFGSGTKLEIK
Molecule B5 displayed a concentration for a half-maximal effect (EC50 (read off the curve)) in assay [3] of 4 ng/mL.

B6: 16E7 antibody (antibody, V domains shown)
VH: B5 VH with D1E, T23A, G31S, A54T, D56S, T97A, R102N, H104Y
VL: B5 VL with P15L, Q49K, V89M
For B6, the EC50 (read off the curve) in assay [3] is 8 ng/mL. This EC50 (read off the curve) lies about 2-fold higher than the previous one.

B7: 13B3 antibody (antibody, V domains shown)
VH: EVQLQQSGPELLKPGASVKISCKASGYTFTEYTMHWVKQSHGKSLEWIGSINPYYGGTSYNEKFKDKATLTVDKSSNTAYMEFRSLTSEDCAVYYCARYGNYVGYFDYWGQGTTLTVSS
VL: ENVLTQSPAIMSASLGEKVTMSCRASSSVHYMYWYQQKSDASPKLWIYYTSNLAPGVPDRFSGSGSGNSYSLTISSMEGEDAATYYCQQFTSSPYTFGGGTKLEIK
For the molecule B7, in assay [2], the concentration for a half-maximal effect (EC50 (read off the curve)) came to 4 ng/mL.

B8: 53A11 antibody (antibody, V domains shown)
VH: EVQLQQSGPELLKPGASVKISCKASGYTFTDYTMHWVKQSHGKSLEWIGGINPYYGGTTYNEKFKDKATLTVDKSSSTAYMELRSLTSEDSAVYYCAKGDYYGGSYNYWGQGTTLTVSS
VL: DIVLTQSLATLSVTPGDSVSLSCRASQDISNSLHWYQQKSHESPRLLIKYASQSISGIPSRFSGSGSGTDFTLSINSVETEDFGMYFCQQSNSWPYTFGGGTKLEIK
In turn, B8 had an EC50 (read off the curve) in assay [2] of 6 ng/mL.

B9: 23H8 antibody (antibody, V domains shown)
VH: EVQLQQSGPELLKPGASVKISCKASGYTFTDNTIHWVKQSHGKSLEWIGHINPYYGGTNNNEKFKDKATLTVDKSSSTAYMELRSLTSEDSAIYYCARKGIYYSSPFDYWGQGTTLTVSS
VL: DIQMTQTTSSLSASLGDRVTISCRASQDINNYLNWYQQKPDGTVKLLISYTSKLHSGVPSRFSGSGSGTDYSLTISNLEREDFATYFCQQGNTLPFTFGSGTNLEIK
For the molecule B9, in assay [2], the EC50 (read off the curve) was 4 ng/mL. This EC50 (read off the curve) lies about 1.5-fold lower than the previous one.

B10: 14E1 antibody (antibody, V domains shown)
VH: QVQLQQSGAELVKPGASVRLSCKASGYTFTKYTIHWVKQRSGQGLEWIGWFYPGSDSIKYNEKFKDKATLTADKSSRTVYMELSRLTSEDSAVYFCARHEEYTNSLAYWGQGTLVTVSA
VL: B9 VL with N30S, K39Q, S49Y, K53R, R80Q, F83I, N92Y, F96W, S100G
In turn, B10 registered a concentration giving a half-maximal response (EC50 (read off the curve)) in assay [3] of 20 ng/mL.

The values above are taken from patent US20160009819A1.
